Data: US20140056964A1, “GRANZYME B INHIBITOR COMPOSITIONS, METHODS AND USES FOR PROMOTING WOUND HEALING” (THE UNIVERSITY OF BRITISH COLUMBIA, priority 2010, published 2014)

Test system: wild type C57BL/6 mice
Assay: full thickness skin wound in mice, decorin immunohistochemistry of closed wound tissue
Assay type: in vivo, mouse
Conditions: 1 cm full thickness back wound, 60 μl applied directly onto the wound, 16 days
Experimental: As depicted in FIG. 23, decorin distribution is impacted by serpina3n in closed wound tissue. Seven week old wild type C57BL/6 mice were given a 1 cm diameter full thickness wound on their backs. Mice were then given either saline (upper panels) or the Granzyme B inhibitor, serpina3n (lower panels), by applying 60 μl of the appropriate solution directly onto the wound immediately following the wounding procedure. Wounds were allowed to heal for 16 days, at which point mice were sacrificed and the closed wound tissue harvested. […] Increased decorin throughout the newly formed dermis thus provides more organized collagen, less scarring and increased tensile strength.

B1: serpina3n: the Granzyme B inhibitor, serpina3n; Serpina3n is also known as SerpinA3 (protein, UniProt Q91WP6 21-418, looked up)
Serine protease inhibitor A3N: FPDGTLGMDAAVQEDHDNGTQLDSLTLASINTDFAFSLYKELVLKNPDKNIVFSPLSISAALAVMSLGAKGNTLEEILEGLKFNLTETSEADIHQGFGHLLQRLNQPKDQVQISTGSALFIEKRQQILTEFQEKAKTLYQAEAFTADFQQPRQAKKLINDYVRKQTQGMIKELVSDLDKRTLMVLVNYIYFKAKWKVPFDPLDTFKSEFYAGKRRPVIVPMMSMEDLTTPYFRDEELSCTVVELKYTGNASALFILPDQGRMQQVEASLQPETLRKWKNSLKPRMIDELHLPKFSISTDYSLEDVLSKLGIREVFSTQADLSAITGTKDLRVSQVVHKAVLDVAETGTEAAAATGVKFVPMSAKLYPLTVYFNRPFLIMIFDTETEIAPFIAKIANPK
- decorin distribution (immunohistochemistry) in newly formed dermis: intense decorin staining near the dermal-epidermal junction but also demonstrated intense decorin staining deeper into the dermis
